Data as given in patent US20130280250A1.

Tests used:
[1] = molecular target: CD20 (human) (UniProt P11836); experiment: cell-based or functional assay
[2] = molecular target: CD20 (human) (UniProt P11836); experiment: flow cytometry on Daudi cells, PE-anti-Fab
[3] = molecular target: CD20 (human) (UniProt P11836); experiment: Scatchard analysis, radio-iodinated sample on Raji cells; apparent association constant
[4] = molecular target: gp41 of HIV-1 6794 (HIV-1 6794); experiment: cell-based or functional assay
[5] = molecular target: gp41 of HIV-1IIIB (HIV-1IIIB) (UniProt P03377); experiment: cell-based or functional assay

EC50, inhibition of proliferation of Daudi cells (4-d MTS assay) [1] [nM]	EC50, inhibition of proliferation of Raji cells (4-d MTS assay) [1] [nM]	EC50, inhibition of proliferation of Ramos cells (4-d MTS assay) [1] [nM]	greater fluorescence intensity than veltuzumab (PE-anti-Fab) [2] [%]	Ka [3] [M⁻¹]	Substance	EC50, viable cell counting assay, Ramos, 3 days [1] [nM]	inhibition of cell proliferation at 0.5 nmol/L, viable cell counting, Raji and Ramos [1] [%]	EC50 estimated, neutralization of HIV-1 6794 in PBMCs, 50TCID50 [4] [nM]	EC50 estimated, neutralization of HIV-1 6794 in PBMCs, 100TCID50 [4] [nM]	EC50 estimated, neutralization of HIV-1IIIB in Jurkat T cells, 50TCID50 [5] [nM]	EC50 estimated, neutralization of HIV-1IIIB in Jurkat T cells, 100TCID50 [5] [nM]
0.15	0.064	0.15	40 to 50	3.9e+08	Hex-hA20 (hexavalent anti-CD20 antibody, six Fabs with one Fc)	0.17	> 50	–	–	–	–
–	–	–	–	–	T20 HIV fusion inhibitor (enfuvirtide, FUZEON) (peptide)	–	–	9	9	9	–
–	–	–	–	–	hLL2-(T20)4	–	–	< 0.2	< 0.2	< 0.2	0.1
